Data from patent US9512178B2, “Neurogenic brain-derived neurotrophic factor peptides” (Research Foundation for Mental Hygiene, Inc., priority 2012, dated 2016).

What was measured:
[1] = direct administration into the CNS; cited from earlier work
[2] = in vivo; cited from earlier work
TrkB receptor = molecular target: T1, TrkB receptor (Mus musculus, UniProt P15209); assay: TrkB phosphorylation (Tyr 706) and TrkB level in primary E18 hippocampal cells, with or without K252a; assay type: cell-based; settings: 20 ng/ml
T1 construct: endogenous in cells; host or cells: primary hippocampal neurons from embryonic day 18 C57BL/6 mice
Protocol: Peptides were dissolved in water in serial dilutions of 10 mM, 1 mM, 100 μM and 10 μM from which the necessary amount was added directly to the culture medium to a final concentration of 0.05 μM, 1 μM, or 10 μM. The BDNF (Peprotech, NJ, USA) was used as a reference in concentrations of 20 ng/ml (0.79 nM) and 100 ng/ml (3.95 nM). Cycloheximide (CHX) (Sigma-Aldrich, St Louis, Mo., USA) was used for blocking protein synthesis. CHX original stock was 100 mg/ml (355.4 mM) in DMSO; from a second stock of 35.54 mM in DMSO, the dilutions were made to the final concentrations of 100 μM. The K252a (CALBIOCHEM/EMD) was used to inhibit the TrkB Receptor. From a stock of 100 μM in DMSO, K252a was diluted to a final working concentration of 200 nM. The E18 primary hippocampal cells were pre-treated with CHX or K252a 1 h prior to the addition of the peptides or BDNF and a time course of these treatments for 15 min, 60 min and 2 days was studied.
Following treatment in 6-well plates, cells were washed 2× in glucose buffered saline, GBS (5.4 mM KCl, 138 mM NaCl, 22 mM glucose, and 2 mM Na—KPO pH 7.2), and then lysed by 5 min incubation on ice in 100 or 150 μl of ice-cold RIPA buffer (PBS, 1% w/v NP-40 from Fisher Scientific, 0.1% w/v SDS, and 0.5% w/v sodium desoxycholate) containing 1 mM AEBSF (Gold Biotechnology, St. Louis, Mo., USA), 10 μg/ml aprotinin (Sigma-Aldrich, St. Louis, Mo., USA), and 20 μg/ml of leupeptin and pepstatin (US Biochemicals, Cleveland, Ohio, USA), and phosphatase inhibitors: NaF, Na orthovanadate, (3-glycerophosphate, and microcystein (Sigma-Aldrich, St. Louis, Mo., USA). Extracts were prepared by collecting and pooling a minimum of 2 wells by scraping, and lysates were centrifuged at 20,000×g for 10 min at 4° C. Protein concentration of each cell lysate was determined using the BCA kit (Thermo Scientific, Rockford, Ill., USA). The lysates (7.5-20 μg total protein) were separated on 10% SDS-PAGE gels (except for BDNF where 12% gels were employed) and transferred to 0.45 μm PVDF membrane (Pall, Pensacola, Fla., USA) for probing with antibodies as noted. Blots were blocked for 1 hr at 37° C. in 1×TBST (0.05% Tween 20 in TBS) containing 5% w/v blotting grade dry milk (Bio-rad, Hercules, Calif., USA), incubated in primary antibody overnight in blocking buffer at 4° C., washed 3×10 min in TBST at room temperature, followed by incubation with secondary antibody, i.e., peroxidase-conjugated anti-mouse or anti rabbit IgG (Jackson ImmunoResearch Laboratories, West Grove, Pa., USA) diluted in blocking buffer. Blots were washed 3×10 min in TBST and immunoreactive protein bands were visualized with enhanced chemiluminescence (ECL) reagents (Pierce, Rockford, Ill., USA). The ECL films of the blots were scanned and analyzed using Multi Gauge software version 3.0 (Fujifilm, Tokyo, Japan).
The following primary antibodies were used: rabbit polyclonal anti-NFM (1:1000; Chemicon/Millipore, Billerica, Mass., USA); mouse monoclonal anti-NeuN, clone A60 (1:500; Millipore, Billerica, Mass., USA); rabbit polyclonal anti-Tuj-1, (3—III-tubulin (Covance; 1:800, Emeryville, Calif., USA); mouse monoclonal SMI 52 to the adult isoforms of MAP-2, MAP2a,b (1:1000; Covance, Emeryvilly, Calif., USA); rabbit polyclonal anti-Synapsin I (1:2000; Stressgen, Farmingdale, N.Y., USA); rabbit monoclonal anti-PSD95 (1:1000; Cell signaling, Danvers, Mass., USA); anti tau 92e (1:10000); mouse monoclonal anti-BDNF (1:1000; Calbiochem, Gibbstown, N.J., USA); rabbit polyclonal anti-TrkB (total) (1:500; Santa Cruz Biotechnology, Santa Cruz, Calif., USA); rabbit polyclonal anti-pTrkB (Tyr706) (1:400; Santa Cruz Biotechnology, Santa Cruz, Calif., USA), TrkC (1:1000; Cruz Biotechnology, Santa Cruz, Calif., USA); and pTrkY490 (1:500; Upstate USA Inc., Charlottesville, Va., USA). For loading control, the blots were developed with rabbit polyclonal antibody to GAPDH (1:2000; Santa Cruz Biotechnology, Santa Cruz, Calif., USA). […]

TrkC = molecular target: T2, TrkC (Homo sapiens, UniProt Q16288); assay: Trk phosphorylation and TrkC expression in TrkC stably-expressing NIH-3T3 cells; assay type: cell-based; settings: 20 ng/mL
T2 construct: expressed in transfected cells; host or cells: NIH-3T3 fibroblasts
T2 sequence (Q16288 32-839, species assumed): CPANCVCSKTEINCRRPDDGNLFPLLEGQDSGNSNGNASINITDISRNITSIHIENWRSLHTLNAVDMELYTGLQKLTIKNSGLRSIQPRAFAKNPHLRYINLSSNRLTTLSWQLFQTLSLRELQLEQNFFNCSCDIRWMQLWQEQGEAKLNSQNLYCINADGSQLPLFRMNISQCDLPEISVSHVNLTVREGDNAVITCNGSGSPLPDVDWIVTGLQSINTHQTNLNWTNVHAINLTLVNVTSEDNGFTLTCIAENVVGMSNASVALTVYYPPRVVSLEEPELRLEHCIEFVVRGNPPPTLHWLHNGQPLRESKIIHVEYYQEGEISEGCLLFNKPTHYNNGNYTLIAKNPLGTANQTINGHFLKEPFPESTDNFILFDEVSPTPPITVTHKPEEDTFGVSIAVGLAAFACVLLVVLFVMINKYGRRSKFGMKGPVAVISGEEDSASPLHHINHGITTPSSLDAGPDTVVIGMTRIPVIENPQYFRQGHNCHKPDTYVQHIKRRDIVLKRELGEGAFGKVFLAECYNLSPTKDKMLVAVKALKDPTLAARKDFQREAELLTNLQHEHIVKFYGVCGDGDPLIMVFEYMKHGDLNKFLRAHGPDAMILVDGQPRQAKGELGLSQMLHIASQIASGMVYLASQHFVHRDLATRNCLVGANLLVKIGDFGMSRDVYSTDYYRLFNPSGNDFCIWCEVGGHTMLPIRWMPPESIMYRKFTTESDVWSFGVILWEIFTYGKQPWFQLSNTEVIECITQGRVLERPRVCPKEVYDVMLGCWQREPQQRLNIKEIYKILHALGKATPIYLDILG

T1 sequence (P15209 32-821): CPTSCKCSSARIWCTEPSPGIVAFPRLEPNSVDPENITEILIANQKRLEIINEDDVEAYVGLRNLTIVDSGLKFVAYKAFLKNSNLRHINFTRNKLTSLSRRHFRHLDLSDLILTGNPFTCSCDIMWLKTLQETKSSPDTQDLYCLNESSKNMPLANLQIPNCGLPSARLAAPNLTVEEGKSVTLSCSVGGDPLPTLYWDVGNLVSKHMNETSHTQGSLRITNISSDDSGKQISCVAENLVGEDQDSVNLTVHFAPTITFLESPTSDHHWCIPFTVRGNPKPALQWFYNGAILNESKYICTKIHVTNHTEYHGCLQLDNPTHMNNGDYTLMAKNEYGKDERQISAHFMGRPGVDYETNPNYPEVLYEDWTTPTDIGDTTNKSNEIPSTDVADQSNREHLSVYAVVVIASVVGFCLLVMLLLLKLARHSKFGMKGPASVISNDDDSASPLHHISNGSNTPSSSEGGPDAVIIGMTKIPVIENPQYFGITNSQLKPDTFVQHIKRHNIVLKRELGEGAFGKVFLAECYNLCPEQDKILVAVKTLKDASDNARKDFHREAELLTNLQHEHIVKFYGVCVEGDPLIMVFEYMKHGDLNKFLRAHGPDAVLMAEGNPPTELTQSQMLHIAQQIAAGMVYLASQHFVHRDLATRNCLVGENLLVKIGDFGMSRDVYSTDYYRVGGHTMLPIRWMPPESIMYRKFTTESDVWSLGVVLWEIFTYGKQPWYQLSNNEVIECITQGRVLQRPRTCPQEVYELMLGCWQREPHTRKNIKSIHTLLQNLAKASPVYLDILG

B1: BDNF: Brain derived neurotrophic factor (Peprotech), used as a reference at 20 ng/ml and 100 ng/ml (protein, UniProt P23560 19-247, looked up)
Neurotrophic factor BDNF …: APMKEANIRGQGGLAYPGVRTHGTLESVNGPKAGSRGLTSLADTFEHVIEELLDEDQKVRPNEENNKDADLYTSRVMLSSQVPLEPPLLFLLEEYKNYLDAANMSMRVRRHSDPARRGELSVCDSISEWVTAADKKTAVDMSGGTVTVLEKVPVSKGQLKQYFYETKCNPMGYTKEGCRGIDKRHWNSQCRTTQSYVRALTMDSKKRIGWRFIRIDTSCVCTLTIKRGR
undesirable effects [1]: weight loss, dysaesthesias (impairment of sensation), and in some cases, pain
blood brain barrier (BBB) and intraparenchymal penetrations [2]: poor
plasma half-life [2]: less than 1 min
increase in the phosphorylation of the TrkB receptor (TrkB receptor; 5 min, without K252a): significant
activation of TrkB (pTrkB Tyr 706 normalized to total TrkB) (TrkB receptor; 1 h): strong and significant activation
activation of TrkC receptor (TrkC): neither the peptides nor BDNF were able to activate this receptor
expression of TrkC (TrkC): neither BDNF (20 ng/mL) nor peptides B-5 (1 μM) and B-3 (1 μM) were able to modify the expression of TrkC
